The text below walks through data of paper PMC6215006.

The target in this experiment is recombinant human macrophage-colony stimulating factor (human) (UniProt P09603).
UniProt P09603, sequence (P09603 36-181): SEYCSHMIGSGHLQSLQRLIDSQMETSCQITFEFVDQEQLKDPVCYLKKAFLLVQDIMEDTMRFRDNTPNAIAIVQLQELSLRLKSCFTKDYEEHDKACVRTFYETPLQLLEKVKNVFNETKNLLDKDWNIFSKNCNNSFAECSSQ
“mouse syndecan-1 ectodomain from HEK293E cells (from UniProt P18828 23-255) (domain or fragment)”: the inhibition of the differentiation of bone marrow-derived osteoclast precursors into osteoclasts with M-CSF (30 ng/mL) and RANKL (100 ng/mL), TRAP(+) MNCs; maximum inhibitory dose was 1 nM.

For “mouse syndecan-2 ectodomain from HEK293E cells (from UniProt P43407 19-145) (domain or fragment)”, the inhibition of the differentiation of bone marrow-derived osteoclast precursors into osteoclasts with M-CSF (30 ng/mL) and RANKL (100 ng/mL), TRAP(+) MNCs; maximum inhibitory dose was 1 nM.

In the case of “mouse syndecan-3 ectodomain from HEK293E cells (from UniProt Q64519 45-387) (domain or fragment)”, the inhibition of the differentiation of bone marrow-derived osteoclast precursors into osteoclasts with M-CSF (30 ng/mL) and RANKL (100 ng/mL), TRAP(+) MNCs; maximum inhibitory dose stood at 1 nM.

On to “mouse syndecan-4 ectodomain from HEK293E cells (from UniProt O35988 24-145) (domain or fragment)”, for which the inhibition of the differentiation of bone marrow-derived osteoclast precursors into osteoclasts with M-CSF (30 ng/mL) and RANKL (100 ng/mL), TRAP(+) MNCs; maximum inhibitory dose was 1 nM.
